The supplement of paper PMC7125110
± gives the standard error. For part of these data: Fewer inactive variants are shown than the library holds.

B1: glmS ribozyme (parent)
chain: AUAAAAGCGCCAGAACUACAGAAAUGUAGUUGACGAGGAGGAGGUUUAUCGAAUUUUCGGCGGAUGCCUCCAAA

Assays:
Conditions in all cases: with glucosamine-6-phosphate
glucosamine-6-phosphate [1] = variants of: B1; assay: kcat; higher = faster cleavage; RNA array
Summary of the method: (§1)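 Over ~14 h at 37 °C, tiles were imaged as glucosamine-6-phosphate (40 μM to 10 mM) in HEPES/KCl/Mg(OAc)2 buffer flowed across sequenced MiSeq chips. The chips carried barcoded ribozyme variants transcribed in situ by E. coli RNA polymerase and tracked with a hybridised Cy3 probe. After normalisation to baseline and to non-cleaving reference variants, one- or two-exponential decay fits of per-tile medians gave kobs. kcat and KM followed from weighted Michaelis–Menten fits across concentrations.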

glucosamine-6-phosphate [2] = variants of: B1; assay: self-cleavage kobs at 640 uM GlcN6P; higher = faster cleavage; RNA array
Summary of the method: as §1

glucosamine-6-phosphate [3] = variants of: B1; assay: self-cleavage kobs at 10000 uM GlcN6P; higher = faster cleavage; RNA array
Summary of the method: as §1

glucosamine-6-phosphate [4] = variants of: B1; assay: self-cleavage kobs at 40 uM GlcN6P; higher = faster cleavage; RNA array
Summary of the method: as §1

glucosamine-6-phosphate [5] = variants of: B1; assay: self-cleavage kobs at 2500 uM GlcN6P; higher = faster cleavage; RNA array
Summary of the method: as §1

glucosamine-6-phosphate [6] = variants of: B1; assay: self-cleavage kobs at 160 uM GlcN6P; higher = faster cleavage; RNA array
Summary of the method: as §1

glucosamine-6-phosphate [7] = variants of: B1; assay: KM; higher = weaker cofactor use; RNA array
Summary of the method: as §1

In the case of AUAAAAGCUCCAGAACUACAGAAAUGUAGUCGACGAGGAGGAGGUUUAUCGAAUUUUCGGCGGAUGCCUCCAAA [G9U U31C], the kcat (glucosamine-6-phosphate [1]) is reported as < 1e-05 s⁻¹, the “self-cleavage kobs at 640 uM GlcN6P” value (glucosamine-6-phosphate [2]) is reported as < 1e-05 s⁻¹ and the “self-cleavage kobs at 10000 uM GlcN6P” value (glucosamine-6-phosphate [3]) is reported as < 1e-05 s⁻¹.

In the case of AUAAAAGCGCCAGAACUACAGAAAUGUAGUUGUCGAGGAGGAGGUUUAUCGAAUUUUCUGCGGAUGCCUCCAAA [A33U G59U], the kcat (glucosamine-6-phosphate [1]) is reported as < 1e-05 s⁻¹, the “self-cleavage kobs at 40 uM GlcN6P” value (glucosamine-6-phosphate [4]) is reported as < 1e-05 s⁻¹ and the “self-cleavage kobs at 640 uM GlcN6P” value (glucosamine-6-phosphate [2]) is reported as < 1e-05 s⁻¹. The “self-cleavage kobs at 2500 uM GlcN6P” value (glucosamine-6-phosphate [5]) was < 1e-05 s⁻¹.

With AUAAAAGCGCCAGAACUACAGAAAUGUAGUUAACGAGGAGGAGGUUUAUCGAAUUUUCGUCGGAUGCCUCCAAA [G32A G60U] the kcat (glucosamine-6-phosphate [1]) was < 1e-05 s⁻¹, the “self-cleavage kobs at 160 uM GlcN6P” value (glucosamine-6-phosphate [6]) was < 1e-05 s⁻¹ and the “self-cleavage kobs at 10000 uM GlcN6P” value (glucosamine-6-phosphate [3]) was < 1e-05 s⁻¹.

For AUAAAAGCGCCAGAACUACAGAAAUGUAGUUGACGAGGAGGAGCUUAAUCGAAUUUUCGGCGGAUGCCUCCAAA [G44C U47A], the kcat (glucosamine-6-phosphate [1]) was 8.35e-05 ± 6.6e-06 s⁻¹, the KM (glucosamine-6-phosphate [7]) was 1270 ± 350 µM and the “self-cleavage kobs at 2500 uM GlcN6P” value (glucosamine-6-phosphate [5]) was 5.07e-05 ± 1.6e-05 s⁻¹. For the same variant, the “self-cleavage kobs at 10000 uM GlcN6P” value (glucosamine-6-phosphate [3]) was 7.67e-05 ± 1.8e-05 s⁻¹.

In the case of AUAAAAGCGCCAGAACUACAGAAAUGUAGUUCACGAGGAGGAGGUUUAUCGAAUGUUCGGCGGAUGCCUCCAAA [G32C U55G], the kcat (glucosamine-6-phosphate [1]) is reported as 0.000137 ± 1.4e-05 s⁻¹, the “self-cleavage kobs at 2500 uM GlcN6P” value (glucosamine-6-phosphate [5]) is reported as 2.64e-05 ± 8.4e-06 s⁻¹ and the “self-cleavage kobs at 10000 uM GlcN6P” value (glucosamine-6-phosphate [3]) is reported as 6.68e-05 ± 1.2e-05 s⁻¹.

For AUAAAAGCGCCGGAAUUACAGAAAUGUAGUUGAGGAGGAGGAGGUUUAUCGAAUUUUCGGCGGAUGGCUCCAAA [A12G C16U C34G C67G], the kcat (glucosamine-6-phosphate [1]) was 1.6e-05 ± 3.8e-06 s⁻¹.

With AUAAAAGCGCCAGAACUACAGAAAUGUAGUUGACGAGGAGGAGGUUUUUCGAAUUUUCGGCGGAUGCCUACAAA [A48U C70A] the kcat (glucosamine-6-phosphate [1]) was 1.64e-05 ± 7.1e-06 s⁻¹ and the “self-cleavage kobs at 2500 uM GlcN6P” value (glucosamine-6-phosphate [5]) was 3.28e-05 ± 1.6e-05 s⁻¹.

In the case of AUAAAAGCGCCAGAACUACAGAAAUGUAGAUGACGAAGAGGAGGUUUAUCGAAUUUUCGGCGGAUGCCUCCAAA [U30A G37A], the kcat (glucosamine-6-phosphate [1]) is reported as 0.000308 ± 0.00011 s⁻¹, the “self-cleavage kobs at 160 uM GlcN6P” value (glucosamine-6-phosphate [6]) is reported as 3.75e-05 ± 1.2e-05 s⁻¹ and the “self-cleavage kobs at 640 uM GlcN6P” value (glucosamine-6-phosphate [2]) is reported as 6.25e-05 ± 1.2e-05 s⁻¹. The “self-cleavage kobs at 2500 uM GlcN6P” value (glucosamine-6-phosphate [5]) was 0.000141 ± 2.9e-05 s⁻¹ and the “self-cleavage kobs at 10000 uM GlcN6P” value (glucosamine-6-phosphate [3]) was 0.000302 ± 7.7e-05 s⁻¹.

In the case of AUAAAAGCGCAAGAACUACAGAAAUGUAGUUGACGUCGAGGAGGUUUAUCGAAUUUUCGGCGGAUGCCUCCAAA [C11A A36U G37C], the kcat (glucosamine-6-phosphate [1]) is reported as < 1e-05 s⁻¹ and the “self-cleavage kobs at 40 uM GlcN6P” value (glucosamine-6-phosphate [4]) is reported as < 1e-05 s⁻¹.

AUAAAAGCGCUAGAACUACAGAAAUGUAGUUGACGAAGAGGAGGUUUAUCGAAUUUUCGGCGGAUGCCUCCAAA [C11U G37A] was tested, and the kcat (glucosamine-6-phosphate [1]) was 7.88e-05 ± 6.9e-07 s⁻¹, the KM (glucosamine-6-phosphate [7]) was 1070 ± 36 µM and the “self-cleavage kobs at 640 uM GlcN6P” value (glucosamine-6-phosphate [2]) was 2.98e-05 ± 9.1e-06 s⁻¹. For the same variant, the “self-cleavage kobs at 2500 uM GlcN6P” value (glucosamine-6-phosphate [5]) was 5.51e-05 ± 9.5e-06 s⁻¹ and the “self-cleavage kobs at 10000 uM GlcN6P” value (glucosamine-6-phosphate [3]) was 7.12e-05 ± 8.2e-06 s⁻¹.

AUAAAAGCGGCAGAACUACAGAAAUGUAGUUGACGAGGAGGAGGUUUAUCGAAUUUUCGGCGGAUGACUCCAAA [C10G C67A] showed a kcat (glucosamine-6-phosphate [1]) of 2.45e-05 ± 7.2e-06 s⁻¹.

In the case of AUAAAAGCGCCAGAACUACAGAAAUGUAGUUGACGAGGAGAAGGUUUAGCGAAUUUUCGGCGGAUGCCUCCAAA [G41A U49G], the kcat (glucosamine-6-phosphate [1]) is reported as 3.79e-05 ± 6.4e-06 s⁻¹, the “self-cleavage kobs at 2500 uM GlcN6P” value (glucosamine-6-phosphate [5]) is reported as 3.9e-05 ± 1e-05 s⁻¹ and the “self-cleavage kobs at 10000 uM GlcN6P” value (glucosamine-6-phosphate [3]) is reported as 3.34e-05 ± 8.6e-06 s⁻¹.

AUAAAAGCGCCAGAACUACAGAAAUGUAGUUGACGAGGAUGAGGUUUAUCGAAUUUUCGGCGGAUGCCUGCAAA [G40U C70G] was tested, and the kcat (glucosamine-6-phosphate [1]) was 0.000495 ± 8.8e-05 s⁻¹, the KM (glucosamine-6-phosphate [7]) was 1770 ± 560 µM and the “self-cleavage kobs at 40 uM GlcN6P” value (glucosamine-6-phosphate [4]) was 2.91e-05 ± 7.3e-06 s⁻¹. For the same variant, the “self-cleavage kobs at 160 uM GlcN6P” value (glucosamine-6-phosphate [6]) was 4.28e-05 ± 7.1e-06 s⁻¹, the “self-cleavage kobs at 640 uM GlcN6P” value (glucosamine-6-phosphate [2]) was 0.000121 ± 1e-05 s⁻¹ and the “self-cleavage kobs at 2500 uM GlcN6P” value (glucosamine-6-phosphate [5]) was 0.000346 ± 3.4e-05 s⁻¹. The “self-cleavage kobs at 10000 uM GlcN6P” value (glucosamine-6-phosphate [3]) was 0.000404 ± 3.4e-05 s⁻¹.

In the case of AUAAAAGCGCCGGAGCUACAGAAAUGUAGUUGACGAGGAGGAGGUUUAUCGAAUUUUCGGCGGAUGCCUCCAAA [A12G A15G], the kcat (glucosamine-6-phosphate [1]) is reported as 0.000505 ± 0.00012 s⁻¹, the KM (glucosamine-6-phosphate [7]) is reported as 4550 ± 1800 µM and the “self-cleavage kobs at 160 uM GlcN6P” value (glucosamine-6-phosphate [6]) is reported as 2.24e-05 ± 1e-05 s⁻¹. For the same variant, the “self-cleavage kobs at 640 uM GlcN6P” value (glucosamine-6-phosphate [2]) was 7.71e-05 ± 9.2e-06 s⁻¹, the “self-cleavage kobs at 2500 uM GlcN6P” value (glucosamine-6-phosphate [5]) was 0.000155 ± 1.5e-05 s⁻¹ and the “self-cleavage kobs at 10000 uM GlcN6P” value (glucosamine-6-phosphate [3]) was 0.000371 ± 3.2e-05 s⁻¹.

For AUAAAAGCGCCUGAACUACAGAAAUGUAGUUGACGAGGAGGAGGUUUAUCGAAUUUUCGGGGGAUGCCUCCAAA [A12U C61G], the kcat (glucosamine-6-phosphate [1]) was < 1e-05 s⁻¹ and the “self-cleavage kobs at 40 uM GlcN6P” value (glucosamine-6-phosphate [4]) was < 1e-05 s⁻¹.

AUAAAAGCGCCAGAACUACAGAAAUGUAGUUGGCGAGGAGGAGGUUUAUCGAAUUUUCUGCGGAUGCAUCAAAA [A33G G59U C68A C71A] gave a kcat (glucosamine-6-phosphate [1]) of 2.2e-05 ± 6.5e-06 s⁻¹.

With AUAAAAGCGCUAGAACUACAGAAAUGUAGUUGACGAGGAGGAGGUUUAUCGAAUUUUCGGCGGAUUCCUCCAAA [C11U G66U] the kcat (glucosamine-6-phosphate [1]) was 4.89e-05 ± 2.1e-05 s⁻¹, the “self-cleavage kobs at 40 uM GlcN6P” value (glucosamine-6-phosphate [4]) was < 1e-05 s⁻¹ and the “self-cleavage kobs at 2500 uM GlcN6P” value (glucosamine-6-phosphate [5]) was 6.45e-05 ± 1e-05 s⁻¹. The “self-cleavage kobs at 10000 uM GlcN6P” value (glucosamine-6-phosphate [3]) was 2.69e-05 ± 1.2e-05 s⁻¹.

For AUAAAAGCGCCAGAACUACAGAAAUGUAGUUGACGAGGAGCAGGUUUAUCGAAUUUUCGGCGGAUGCCUUCAAA [G41C C70U], the kcat (glucosamine-6-phosphate [1]) was 0.000551 ± 0.00016 s⁻¹, the “self-cleavage kobs at 40 uM GlcN6P” value (glucosamine-6-phosphate [4]) was 4.81e-05 ± 7.7e-06 s⁻¹ and the “self-cleavage kobs at 160 uM GlcN6P” value (glucosamine-6-phosphate [6]) was 9.61e-05 ± 2.4e-05 s⁻¹. For the same variant, the “self-cleavage kobs at 640 uM GlcN6P” value (glucosamine-6-phosphate [2]) was 0.000173 ± 2.2e-05 s⁻¹, the “self-cleavage kobs at 2500 uM GlcN6P” value (glucosamine-6-phosphate [5]) was 0.000498 ± 6.2e-05 s⁻¹ and the “self-cleavage kobs at 10000 uM GlcN6P” value (glucosamine-6-phosphate [3]) was 0.000516 ± 5.8e-05 s⁻¹.

For AUAAAAGCGCCGGAACUACAGAAAUGUAGUUGACGAGGAGGAGGUUUAUCGAAUUUUCGGCGGCUGCCUCCAAA [A12G A64C], the kcat (glucosamine-6-phosphate [1]) was < 1e-05 s⁻¹ and the “self-cleavage kobs at 40 uM GlcN6P” value (glucosamine-6-phosphate [4]) was < 1e-05 s⁻¹.

AUAAAAGCGCCAGGACUACAGAAAUGUAGUUGACGAGGAGGAGGUUUAUCGAAUUUUUGGCGGAUGCCUCCAAA [A14G C58U] was tested, and the kcat (glucosamine-6-phosphate [1]) was 0.000263 ± 4.8e-05 s⁻¹, the “self-cleavage kobs at 40 uM GlcN6P” value (glucosamine-6-phosphate [4]) was < 1e-05 s⁻¹ and the “self-cleavage kobs at 2500 uM GlcN6P” value (glucosamine-6-phosphate [5]) was 5.32e-05 ± 1.9e-05 s⁻¹. For the same variant, the “self-cleavage kobs at 10000 uM GlcN6P” value (glucosamine-6-phosphate [3]) was 0.000129 ± 2.9e-05 s⁻¹.

In the case of AUAAAAGCGCCAGAACUACAGAAAUGUAGUUGACGAGGAGGAGGUCUAUCGAAUUUUCGGCGGAUGACUCCAAA [U46C C67A], the kcat (glucosamine-6-phosphate [1]) is reported as 0.000818 ± 0.00012 s⁻¹, the KM (glucosamine-6-phosphate [7]) is reported as 1380 ± 390 µM and the “self-cleavage kobs at 40 uM GlcN6P” value (glucosamine-6-phosphate [4]) is reported as 3.57e-05 ± 1.7e-05 s⁻¹. The “self-cleavage kobs at 160 uM GlcN6P” value (glucosamine-6-phosphate [6]) was 6.58e-05 ± 2.1e-05 s⁻¹, the “self-cleavage kobs at 640 uM GlcN6P” value (glucosamine-6-phosphate [2]) was 0.000284 ± 5.6e-05 s⁻¹ and the “self-cleavage kobs at 2500 uM GlcN6P” value (glucosamine-6-phosphate [5]) was 0.00062 ± 0.00012 s⁻¹. For the same variant, the “self-cleavage kobs at 10000 uM GlcN6P” value (glucosamine-6-phosphate [3]) was 0.000676 ± 0.00011 s⁻¹.
